Test results taken from patent US20190234935A1 (Janssen / Centocor, published 2019).

T1: GFRAL ECD-Fc (GFRAL extracellular domain, human IgG1 Fc, 6xHis-tag and Avi-tag) (human, UniProt Q6UXV0 19-351)
T1 construct: The recombinant signal peptide is left out; also called GFRAL extracellular domain (ECD)-Fc fusion; not shown: human IgG1 Fc; 6xHis-tag and Avi-tag at the C-terminus
T1 sequence: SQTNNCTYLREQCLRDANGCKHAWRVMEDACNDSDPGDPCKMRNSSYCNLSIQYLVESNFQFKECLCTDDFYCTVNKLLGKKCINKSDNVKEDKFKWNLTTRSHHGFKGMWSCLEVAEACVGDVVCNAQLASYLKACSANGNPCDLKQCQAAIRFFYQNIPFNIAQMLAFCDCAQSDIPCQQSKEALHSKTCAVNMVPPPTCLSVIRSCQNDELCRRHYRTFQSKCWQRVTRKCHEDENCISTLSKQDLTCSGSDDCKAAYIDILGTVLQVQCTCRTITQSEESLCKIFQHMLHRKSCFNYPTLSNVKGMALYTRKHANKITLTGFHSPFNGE

T2: Human GFRAL ECD-Fc (human GFRAL extracellular domain fused to human IgG1 Fc with 6xHis-tag) (human, UniProt Q6UXV0 19-351)
T2 construct: not shown: Human IgG1 Fc, any junction and the C-terminal 6xHis
T2 sequence: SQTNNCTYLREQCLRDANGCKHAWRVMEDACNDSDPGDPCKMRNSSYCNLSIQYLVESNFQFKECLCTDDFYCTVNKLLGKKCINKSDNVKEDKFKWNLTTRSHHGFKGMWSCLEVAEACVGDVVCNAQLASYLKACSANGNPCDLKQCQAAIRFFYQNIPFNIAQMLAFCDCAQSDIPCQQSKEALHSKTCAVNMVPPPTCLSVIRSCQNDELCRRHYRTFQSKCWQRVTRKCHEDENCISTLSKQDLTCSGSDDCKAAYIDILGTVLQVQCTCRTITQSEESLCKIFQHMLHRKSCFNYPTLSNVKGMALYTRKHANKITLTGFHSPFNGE


What was measured:
[1] = target: T1, GFRAL ECD-Fc (GFRAL extracellular …); assay: SPR
[2] = target: T3, cyno GFRAL ECD-Fc (cynomolgus monkey GFRAL extracellular domain fused to human IgG1 Fc with 6xHis-tag) (cynomolgus monkey); assay: SPR (ProteOn)
Procedure: Affinity measurements using Surface Plasmon Resonance (SPR) were performed using a ProteOn XPR36 system (Bio-Rad, Hercules, Calif.). A biosensor surface was prepared by coupling anti-Human IgG Fc (Jackson Immuno Research Labs, West Grove, Pa.) to the modified alginate polymer layer surface of a GLC chip (BioRad) using the manufacturer's instructions for amine-coupling chemistry. Approximately 5000 RU (response units) of mAbs were immobilized. The kinetic experiments were performed at 25° C. in running buffer (DPBS+0.01% P20+100 μg/ml BSA). To perform binding kinetic experiment of HSA-GDF15, GFRAL ECD-Fc or isotype control were captured followed by injections of ligands at 5 concentrations (in a 4-fold serial dilution). The association phase was monitored for 3 minutes at 50 μl/min, then followed by 15 minutes of buffer flow (dissociation phase). The chip surface was regenerated with two 18 second pulses of 100 mM H3PO4 (Sigma, St. Louis, Mo.) at 100 μL/min. The collected data were processed using ProteOn Manager software. First, the data was corrected for background using inter-spots. Then, double reference subtraction of the data was performed by using the buffer injection for analyte injections. The kinetic analysis of the data was performed using a Langmuir 1:1 binding model. […]

[3] = target: T2, Human GFRAL ECD-Fc (human GFRAL …); assay: SPR (ProteOn), GFRAL ECD-Fc captured by anti-human IgG Fc
Procedure: (§1) Affinity measurements using Surface Plasmon Resonance (SPR) were performed using a ProteOn XPR36 system (Bio-Rad, Hercules, Calif.). A biosensor surface was prepared by coupling anti-Human IgG Fc (Jackson Immuno Research Labs, West Grove, Pa.) to the modified alginate polymer layer surface of a GLC chip (BioRad) using the manufacturer's instructions for amine-coupling chemistry. Approximately 5000 RU (response units) of mAbs were immobilized. The kinetic experiments were performed at 25° C. in running buffer (DPBS+0.01% P20+100 μg/ml BSA). To perform binding kinetic experiment of HSA-GDF15, GFRAL ECD-Fc or isotype control were captured followed by injections of ligands at 5 concentrations (in a 4-fold serial dilution). The association phase was monitored for 3 minutes at 50 μl/min, then followed by 15 minutes of buffer flow (dissociation phase). The chip surface was regenerated with two 18 second pulses of 100 mM H3PO4 (Sigma, St. Louis, Mo.) at 100 μL/min. The collected data were processed using ProteOn Manager software. First, the data was corrected for background using inter-spots. Then, double reference subtraction of the data was performed by using the buffer injection for analyte injections. The kinetic analysis of the data was performed using a Langmuir 1:1 binding model. The result was reported in the format of ka (On-rate), kd (Off-rate) and KD (equilibrium dissociation constant).

[4] = target: T3, cyno GFRAL ECD-Fc (cynomolgus monkey …); assay: as above
Procedure: as §1

Kd [1]	koff [1]	kon [1]	fold difference in binding affinity against human GFRAL [2]	Kd [3]	koff [3]	kon [3]	Kd [4]	koff [4]	kon [4]	Binder
0.0196 nM	0.000197 s⁻¹	1.01e+07 M⁻¹ s⁻¹	–	–	–	–	–	–	–	FlagTag-GDF15, homodimer (ligand, it is counted on the native full length protein; also called non-fusion GDF15; mature GDF15 homodimer) EFDYKDDDDKARNGDHCPLGPGRCCRLHTVRASLEDLGWADWVLSPREVQVTMCIGACPSQFRAANMHAQIKTSLHRLKPDTVPAPCCVPASYNPMVLIQKTDTGVSLQTYDDLLAKDCHCI
–	–	–	≤ 2 fold	0.0861 nM	0.000156 s⁻¹	1.81e+06 M⁻¹ s⁻¹	0.157 nM	0.000291 s⁻¹	1.86e+06 M⁻¹ s⁻¹	HSA-GDF15 (Example 7; linker SEQ ID NO:26) (ligand, not shown: large carriers; small tags and cut ends, Disulfide-linked homodimer through GDF15; one protomer is given., No His tag is told of for this construct; purified on HSA CaptureSelect resin) ARNGDHCPLGPGRCCRLHTVRASLEDLGWADWVLSPREVQVTMCIGACPSQFRAANMHAQIKTSLHRLKPDTVPAPCCVPASYNPMVLIQKTDTGVSLQTYDDLLAKDCHCI
